Experiments:
[1] = tested on: T1, Fis (His-tagged) (Pseudomonas putida), ORF:eb421da7; test: EMSA with competition; settings: EMSA: 24 mM Tris/HCl pH 7.5, 50 mM KCl, 10 mM MgCl2, 1 mM CaCl2, 0.1 mM EDTA, 5% glycerol, 0.05 ug/ul BSA, 0.05 ug/ul salmon sperm DNA, 20 min room …
T1 sequence: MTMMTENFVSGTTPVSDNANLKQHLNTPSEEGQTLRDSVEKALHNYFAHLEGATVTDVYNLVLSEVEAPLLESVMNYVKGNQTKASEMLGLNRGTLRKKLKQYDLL

[2] = tested on: T1, Fis (His-tagged) (Pseudomonas putida), ORF:eb421da7; test: DNase I footprinting; settings: EMSA: 24 mM Tris/HCl pH 7.5, 50 mM KCl, 10 mM MgCl2, 1 mM CaCl2, 0.1 mM EDTA, 5% glycerol, 0.05 ug/ul BSA, 0.05 ug/ul salmon sperm DNA, 20 min room …

| Sequence | binding [1] | binding [2] |
| --- | --- | --- |
| AGGATCCGAAACGCTTGGCTAAGGTACAAATATCAATGTGACATTACATTGCCGATTGTTTAGGATGGCATGTATAAGCTGAATAGTTTGGAGGTCAGGCAATTCCAAAAAGTTATAGACGGAATATTGACGTCAAAAACGTCAAGAGATCATCGACATAGTTCCGCCTGAAGTGGCTAGCAAGCGCCGCTCTGGCAGGGAAGTACC (double strand) [Fis-A1-Fis-A2mut fragment] | binds more weakly | – |
| AGGATCCGAAACGCTTGGCTAAGGTACAAATATCAATGTGACATTACATTGCCGATTGTTTAGGATGGCATGTATAAGGTCAATAGTTTGGCAGTCAGGCAATTCCAAAAAGTTATAGACGGAATATTGACGTCACCCACGTGCCGAGATCATCGACATAGTTCCGCCTGAAGTGGCTAGCAAGCGCCGCTCTGGCAGGGAAGTACC (double strand) [Fis-A1mut-Fis-A2 fragment] | binds more weakly | – |
| GGTACTTCCCTGCCAGAGCGGCGCTTGCTAGCCACTTCAGGCGGAACTATGTCGATGATCTCTTGACGTTTTTGACGTCAATATTCCGTCTATAACTTTTTGGAATTGCCTGACTGCCAAACTATTGACCTTATACATGCCATCCTAAACAATCGGCAATGTAATGTCACATTGATATTTGTACCTTAGCCAAGCGTTTCGGATCCT (double strand) [lapA Fis-A1/Fis-A2 fragment WT] | binds | binds |
| TGCTGATAAGGGTTATCACGCCCTGGTGCTGGAGCAGCTGGCCAATGTTCGCCTTGAATCGGTGTTGAGTAAACAATTCTACGTGCTTCATTTTCACCAGACTTAGCGGGGCAATGATTCTGACAGGCCTGATCCAGCCATCATCCGGCTTGTTGCAGCATAGCCTGCCACTCAGCCAAGGCATGCAAGGGCTTTGGGTTCCAGCTTAGTCACTGTCAGTAAACAGGCGCTGGATCCA (double strand) [Fis-A7mut fragment] | binds more weakly | – |
| TGCTGATAAGGGTTATCACGCCCTGGTGCTGGAGCAGCTGGCCAATGTTCGCCTTGAATCGGTGTTGAGTAAACAATTCTACGTGCTTCATTTTCACCAGACTTAGCGGGGCAATGATTGTTTCATTTTTGATCCAGCCATCATCCGGCTTGTTGCAGCATAGCCTGCCACTCAGCCAAGGCATGCAAGGGCTTTGGGTTCCAGCTTAGTCACTGTCAGTAAACAGGCGCTGGATCCA (double strand) [lapA Fis-A7 fragment WT] | binds | binds |
| TTGAATTCATGCAAGGGCTTTGGGTTCCAGCTTAGTCACTGTCAGTAAACAGGCGCTGGTTTGTTGGCGCATATCTGTGGCTTGTTAGTCAAAATTCATCTATAGAGTGCGGATTCTTGCCTTCTTGCATTCAATATCCGCAAGCGATTTTCAATGATCGGGATACCATTATTCACGCACTCGTCGGTCATCTCTTTGATTTGCGACACATAGCTGCTTGTGACTCGGATCCAAA (double strand) [lapA Fis-A5/Fis-A6 fragment WT] | binds | binds |
| TTTGGATCCGAGTCACAAGCAGCTATGTGTCGCAAATCAAAGAGATGACCGACGAGTGCGTGAATAATGGTATCCCGATCATTGAAAATCGCTTGCGGAGGCTGACTGGGAGAAGGCAAGAATCCGCACTCTATAGATGAATTTTGACTAACAAGCCACAGATATGCGCCAACAAACCAGCGCCTGTTTACTGACAGTGACTAAGCTGGAACCCAAAGCCCTTGCATGAATTCAA (double strand) [Fis-A5mut-Fis-A6 fragment] | binds more weakly | – |
| TTTGGATCCGAGTCACAAGCAGCTATGTGTCGCAAATCAAAGAGATGACCGACGAGTGCGTGAATAATGGTATCCCGATCATTGAAAATCGCTTGCGGATATTGAATGCAAGAAGGCAAGAATCCGCACTCTATACACGTAGGCCGACTAACAAGCCACAGATATGCGCCAACAAACCAGCGCCTGTTTACTGACAGTGACTAAGCTGGAACCCAAAGCCCTTGCATGAATTCAA (double strand) [Fis-A5-Fis-A6mut fragment] | binds more weakly | – |
